In US20240116985A1, “STAPLED PEPTIDES AND METHODS THEREOF” (priority 2020, published 2024):
Starred links: 1 amine or outer side, 2 acyl side, 3 side chain; linkers in the order of their positions; H or OH if unused. Positions of bridges follow the written chain, without caps; N, C: chain ends. Non-standard residues stand in square brackets, D forms with d. Groups on a side chain read outwards from the residue. Primed or numbered codes have the meaning given here. No end group written: not given here. *: point of attachment. PyrS2″ = (S)-3-amino-1-((pent-4-en-1-yloxy)carbonyl)pyrrolidine-3-carboxylic acid (stapling residue), C=CCCCOC(=O)N1CC[C@@](N[*:1])(C(=O)[*:2])C1; B5(4) = 2,2-bis(4-pentenyl)glycine = 2-amino-2-(pent-4-en-1-yl)hept-6-enoic acid (stitching residue), C=CCCCC(CCCC=C)(N[*:1])C(=O)[*:2]; B5(5) = 2,2-bis(4-pentenyl)glycine, 2-amino-2-(pent-4-en-1-yl)hept-6-enoic acid (stitching residue), C=CCCCC(CCCC=C)(N[*:1])C(=O)[*:2]; (CH2NMe2)4SEF = (S)-2-amino-3-(4-(3-(dimethylamino)prop-1-yn-1-yl)phenyl)propanoic acid, CN(C)CC#Cc1ccc(C[C@H](N[*:1])C(=O)[*:2])cc1; TfeGA = (S)-2-amino-3-((carboxymethyl)(2,2,2-trifluoroethyl)amino)propanoic acid, O=C([C@H](CN(CC(=O)[*:3])CC(F)(F)F)N[*:1])[*:2]; B5(31) = 2-amino-2-(pent-4-en-1-yl)hept-6-enoic acid (bis-pentenylglycine, stitching residue), C=CCCCC(CCCC=C)(N[*:1])C(=O)[*:2]; PyrS2 = (S)-3-amino-1-((pent-4-en-1-yloxy)carbonyl)pyrrolidine-3-carboxylic acid, C=CCCCOC(=O)N1CC[C@@](N[*:1])(C(=O)[*:2])C1; 5iPr3COOHF = (S)-3-(2-amino-2-carboxyethyl)-5-isopropylbenzoic acid, CC(C)c1cc(C[C@H](N[*:1])C(=O)[*:2])cc(C(=O)[*:3])c1; (3C)TriAzLys = (S)-2-amino-6-(4-propyl-1H-1,2,3-triazol-1-yl)hexanoic acid, CCCc1cn(CCCC[C@H](N[*:1])C(=O)[*:2])nn1; (bismethoxyethylamine)GlnR″ = N5,N5-bis(2-methoxyethyl)-L-glutamine, COCCN(CCOC)C(=O)CC[C@H](N[*:1])C(=O)[*:2]; Lithocholoyl = C[C@H](CCC(=O)*)[C@H]1CC[C@H]2[C@@H]3CC[C@@H]4C[C@H](O)CC[C@]4(C)[C@H]3CC[C@]12C; MorphAsn = (S)-2-amino-4-morpholino-4-oxobutanoic acid, O=C(C[C@H](N[*:1])C(=O)[*:2])N1CCOCC1; B5(3) = 2,2-bis(4-pentenyl)glycine (stitching residue), C=CCCCC(CCCC=C)(N[*:1])C(=O)[*:2]; Me3AdamantC = 3,5,7-trimethyladamantane-1-carbonyl, CC12CC3(C)CC(C)(C1)CC(C(=O)*)(C2)C3; CO2Hex = N-term cyclohexyl hydrogen carbonate, O=C(OC1CCCCC1)*; CO2Ph = N-term phenyl hydrogen carbonate, O=C(Oc1ccccc1)*; Nva(5-morpholino) = N[C@@H](CCCN1CCOCC1)C(=O)O; Phe(3-COOH) = N[C@@H](Cc1cccc(C(=O)O)c1)C(=O)O; 2F3MeF = Cc1cccc(C[C@H](N[*:1])C(=O)[*:2])c1F; Phe(2-CF3) = N[C@@H](Cc1ccccc1C(F)(F)F)C(=O)O; Phe(2-Cl) = N[C@@H](Cc1ccccc1Cl)C(=O)O; Bta = N[C@@H](Cc1csc2ccccc12)C(=O)O; Lys(iPr) = CC(C)NCCCC[C@H](N)C(=O)O; αAllylPro = C=CC[C@@]1(C(=O)O)CCCN1; Azidoacetyl = [N-]=[N+]=NCC(=O)*; tBuAla = CC(C)(C)C[C@H](N)C(=O)O; 3Thi = N[C@@H](Cc1ccsc1)C(=O)O; Cha = N[C@@H](CC1CCCCC1)C(=O)O; hSer = N[C@@H](CCO)C(=O)O; 34ClF = not defined here; PEG2′ = not defined here; Aib = CC(C)(N)C(=O)O; Moc = COC(=O)*

Target: full-length beta-Catenin (Uniprot ID P35222) (Homo sapiens (Human)) (UniProt P35222)
Assay: fluorescence polarization competition; full-length beta-catenin, competitor 5FAM-TCF4(10-53) probe

Row | Binder | IC50 | EC50
1 | {2‑(3-(allyloxy)phenyl)acetyl}-PD[tBuAla][B5(5)]D[TfeGA]AAFL[PyrS2][3Thi][Bta]Q-NH2 (staple 4-11, N-4; also: staples hydrogenated, -CH=CH- reduced to -CH2-CH2-) [I-2405] | 568 nM | 
2 | Moc-[αAllylPro]D[tBuAla][B5(3)]D[Phe(3-COOH)]AAFL[PyrS2″][Phe(2-Cl)][Bta]A-NH2 (staple 1-4, 4-11) [I-2324] | 83 nM | 
3 | Ac-[αAllylPro]D[tBuAla][B5(5)]NT[Aib]AFL[PyrS2][3Thi][Bta]Q-NH2 (staple 1-4, 4-11) [I-2408] | 10000 nM | 
4 | Azidoacetyl-[αAllylPro]D[tBuAla][B5(5)][3Thi][TfeGA]AAFN[PyrS2]D[Bta]Q-NH2 (staple 1-4, 4-11; also: staple isomer unspecified: later eluting HPLC peak) [I-1057] |  | 6640 nM
5 | Ac-[αAllylPro]D[tBuAla][B5(31)]NTAAFT[PyrS2″][3Thi][Bta]A-NH2 (staple 1-4, 4-11) [I-2334] | 656 nM | 
6 | Ac-[αAllylPro]D[tBuAla][B5(4)]D[Phe(3-COOH)][(bismethoxyethylamine)GlnR″]AFL[PyrS2″][2F3MeF][Bta]A-NH2 (staple 1-4, 4-11) [I-2322] | 7 nM | 
7 | Ac-[αAllylPro]D[tBuAla][B5(5)]NT[Aib]AFN[PyrS2″][3Thi][Bta]A-NH2 (staple 1-4, 4-11) [I-2411] | 140 nM | 
8 | Azidoacetyl-[αAllylPro]D[tBuAla][B5(5)][3Thi][TfeGA]AAFN[PyrS2]D[Bta]Q-NH2 (staple 1-4, 4-11; also: staple isomer unspecified: earlier eluting HPLC peak) [I-1056] |  | 6490 nM
9 | CO2Ph-[αAllylPro]D[tBuAla][B5(31)]D[Phe(3-COOH)]AAFL[PyrS2″][Phe(2-Cl)][Bta]A-NH2 (staple 1-4, 4-11) [I-2327] | 376 nM | 
10 | Azidoacetyl-[αAllylPro]D[tBuAla][B5(5)]DDAAFN[PyrS2]F[Bta]H-NH2 (staple 1-4, 4-11) [I-1055] |  | 7 nM
11 | Ac-[αAllylPro]D[tBuAla][B5(3)]N[Phe(3-COOH)]AAFN[PyrS2″][3Thi][Bta]Q-NH2 (staple 1-4, 4-11) [I-2335] | 7 nM | 
12 | Ac-[αAllylPro]E[tBuAla][B5(31)]NTAAFN[PyrS2″][3Thi][Bta]Q-NH2 (staple 1-4, 4-11) [I-2332] | 10000 nM | 
13 | Ac-[αAllylPro]E[tBuAla][B5(31)]NTAAFN[PyrS2″][3Thi][Bta]Q-NH2 (staple 1-4, 4-11; also: staple isomer, earlier eluting HPLC peak) [I-2331] | 10000 nM | 
14 | Azidoacetyl-[αAllylPro]D[tBuAla][B5(5)]DDAAFN[PyrS2][3Thi][Bta][dT]-NH2 (staple 1-4, 4-11) [I-1058] |  | 14 nM
15 | CO2Hex-[αAllylPro]D[tBuAla][B5(31)]D[Phe(3-COOH)]AAFL[PyrS2″][Phe(2-Cl)][Bta]A-NH2 (staple 1-4, 4-11) [I-2325] | 1350 nM | 
16 | CO2Ph-[αAllylPro]D[tBuAla][B5(31)]DDAAFQ[PyrS2″][3Thi][Bta]H-NH2 (staple 1-4, 4-11) [I-2326] | 185 nM | 
17 | Ac-[αAllylPro]N[tBuAla][B5(31)]NTAAFN[PyrS2″][3Thi][Bta]Q-NH2 (staple 1-4, 4-11) [I-2333] | 10000 nM | 
18 | Azidoacetyl-[αAllylPro]D[tBuAla][B5(5)]DDAAFT[PyrS2][Phe(2-Cl)][Bta][dT]-NH2 (staple 1-4, 4-11) [I-1060] |  | 38 nM

The remaining lines, values ahead:

Row | IC50 | EC50 | Binder
19 | 2120 nM |  | Ac-[αAllylPro]N[Cha][B5(5)]DQNAFL[PyrS2″]F[Bta]K-NH2 (staple 1-4, 4-11) [I-2420]
20 | 1760 nM |  | Ac-[αAllylPro][hSer][tBuAla][B5(5)]DHAAFT[PyrS2″]F[Bta]Q-NH2 (staple 1-4, 4-11) [I-2438]
21 | 158 nM |  | Ac-[αAllylPro]D[tBuAla][B5(5)]NT[Aib]AFN[PyrS2″][3Thi][34ClF]Q-NH2 (staple 1-4, 4-11; reading uncertain; also: printed as Ac-PL3-Asp-Npg-B5-Asn-Thr-Aib-Ala-Phe-Asn-PyrS2-3Thi-34C1F-Gln-NH2) [I-2417]
22 | 203 nM |  | Ac-[αAllylPro]N[Cha][B5(5)]DQ[hSer]AFL[PyrS2″]F[Bta]K-NH2 (staple 1-4, 4-11) [I-2419]
23 | 46 nM |  | Ac-[αAllylPro]N[Cha][B5(5)]DQ[Lys(iPr)]AFL[PyrS2″]F[Bta][MorphAsn]-NH2 (staple 1-4, 4-11) [I-2426]
24 | 267 nM |  | Ac-[αAllylPro]D[tBuAla][B5(5)]NT[Aib]AFN[PyrS2″][3Thi][Bta]F-NH2 (staple 1-4, 4-11) [I-2412]
25 | 360 nM |  | Ac-[αAllylPro]N[tBuAla][B5(5)]DQAAFH[PyrS2″]F[Bta]Q-NH2 (staple 1-4, 4-11) [I-2440]
26 | 133 nM |  | Ac-[αAllylPro]D[tBuAla][B5(5)]NT[Aib]AFN[PyrS2″][3Thi][Bta]R-NH2 (staple 1-4, 4-11) [I-2413]
27 | 145 nM |  | Ac-[αAllylPro]N[Cha][B5(5)]DQQAFL[PyrS2″]F[Bta]K-NH2 (staple 1-4, 4-11) [I-2421]
28 | 401 nM |  | Ac-[αAllylPro]N[Cha][B5(5)]DQ[Lys(iPr)]AFL[PyrS2″]F[Bta][Nva(5-morpholino)]-NH2 (staple 1-4, 4-11) [I-2428]
29 | 10 nM |  | Ac-[αAllylPro]D[Cha][B5(5)]DQ[Lys(iPr)]AFL[PyrS2″]F[Bta]K-NH2 (staple 1-4, 4-11) [I-2429]
30 | 33 nM |  | Ac-[αAllylPro]D[tBuAla][B5(5)]D[5iPr3COOHF]QAFL[PyrS2″][Phe(2-CF3)][Bta]A-NH2 (staple 1-4, 4-11) [I-2431]
31 | 3360 nM |  | Ac-[αAllylPro]N[Cha][B5(5)]DQSAFL[PyrS2″]F[Bta]K-NH2 (staple 1-4, 4-11) [I-2422]
32 | 60 nM |  | Ac-[αAllylPro]D[tBuAla][B5(5)]D[Phe(3-COOH)]AAFL[PyrS2″][Phe(2-CF3)][Bta]S[(3C)TriAzLys]-NH2 (staple 1-4, 4-11) [I-2432]
33 | 2760 nM |  | Ac-[αAllylPro][hSer][tBuAla][B5(5)]DQAAFH[PyrS2″]F[Bta]Q-NH2 (staple 1-4, 4-11) [I-2439]

Target: full-length beta-Catenin (Uniprot ID P35222) (Homo sapiens (Human)) (UniProt P35222)
Assay: fluorescence polarization competition; displacement of 5FAM-TCF4(10-53) from full-length beta-catenin
Target sequence in this assay (P35222 whole entry): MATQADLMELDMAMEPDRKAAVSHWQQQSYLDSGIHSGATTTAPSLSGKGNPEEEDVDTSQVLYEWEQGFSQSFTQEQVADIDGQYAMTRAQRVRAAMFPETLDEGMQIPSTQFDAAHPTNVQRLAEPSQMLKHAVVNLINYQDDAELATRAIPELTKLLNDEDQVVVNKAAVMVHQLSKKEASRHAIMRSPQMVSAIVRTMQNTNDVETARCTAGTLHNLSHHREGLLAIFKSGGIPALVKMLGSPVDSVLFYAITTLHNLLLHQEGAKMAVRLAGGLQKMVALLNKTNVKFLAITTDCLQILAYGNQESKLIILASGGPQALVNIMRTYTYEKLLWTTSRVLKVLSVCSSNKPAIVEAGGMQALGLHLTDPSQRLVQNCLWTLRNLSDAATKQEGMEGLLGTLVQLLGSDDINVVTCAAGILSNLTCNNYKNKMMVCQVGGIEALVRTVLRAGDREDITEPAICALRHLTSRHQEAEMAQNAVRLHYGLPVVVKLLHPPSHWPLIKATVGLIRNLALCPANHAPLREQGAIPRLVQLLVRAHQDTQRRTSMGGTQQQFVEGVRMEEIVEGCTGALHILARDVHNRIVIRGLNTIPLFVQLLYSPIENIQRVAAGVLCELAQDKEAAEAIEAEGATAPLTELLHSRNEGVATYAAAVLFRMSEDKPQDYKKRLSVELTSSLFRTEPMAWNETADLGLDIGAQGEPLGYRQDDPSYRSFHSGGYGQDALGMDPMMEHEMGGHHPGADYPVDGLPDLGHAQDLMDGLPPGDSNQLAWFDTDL

Row | IC50 | Binder
34 | 34 nM | Ac-[αAllylPro]DK(Me3AdamantC)[B5(4)]DDAAFL[PyrS2][3Thi][Bta]Q-NH2 (staple 1-4, 4-11) [I-1471]
35 | 95 nM | Ac-[αAllylPro]DK(Lithocholoyl)[B5(5)]DDAAFL[PyrS2][3Thi][Bta]Q-NH2 (staple 1-4, 4-11) [I-1469]
36 | 12 nM | Ac-[αAllylPro]D[tBuAla][B5(4)]DD[(CH2NMe2)4SEF]AFL[PyrS2]F[Bta]Q (staple 1-4, 4-11) [I-1467]
37 | 5 nM | Ac-[αAllylPro]D[tBuAla][B5(5)]DDAAFQ[PyrS2][3Thi][Bta]H-NH2 (staple 1-4, 4-11) [I-1459]
38 | 57 nM | Ac-[αAllylPro]DK([PEG2′-Lithocholoyl])[B5(4)]DDAAFL[PyrS2][3Thi][Bta]Q-NH2 (staple 1-4, 4-11) [I-1470]
39 | 7 nM | Ac-[αAllylPro]D[tBuAla][B5(5)]DDAAFQ[PyrS2][3Thi][Bta]H-NH2 (staple 1-4, 4-11) [I-1460]
